Patent US20160016995A1

Tests used:
[1] = tested on: untagged GFP (GFPmut3b) [GFP: P42212]
[2] = tested on: GFP-pdt#6 (Example 1) [GFP: P42212]
[3] = tested on: GFP-pdt#4 (Example 1) [GFP: P42212]
[4] = tested on: GFP-pdt#5 (Example 1) [GFP: P42212]
[5] = tested on: GFP-pdt#2 (Example 1) [GFP: P42212]
[6] = tested on: GFP-pdt#5A (Example 1) [GFP: P42212]
[7] = tested on: GFP-pdt#5B (Example 1) [GFP: P42212]
[8] = tested on: GFP-pdt#5H (Example 1) [GFP: P42212]
[9] = tested on: GFP-pdt#3 (Example 1) [GFP: P42212]
[10] = tested on: GFP-pdt (GFP with C-terminal wild-type M. florum ssrA tag) [GFP: P42212]

## Mesoplasma florum Lon protease (mf-Lon)
GFP-pdt#S1 [GFP: P42212]
  Fold Degradation (0 vs 50 ng/ml aTc): 39.4 fold
[1]
  Fold Degradation (0 vs 50 ng/ml aTc): 1.2 fold
[2]
  Fold Degradation (0 vs 50 ng/ml aTc): 55.4 fold
GFP-pdt#5E [GFP: P42212]
  Fold Degradation (0 vs 50 ng/ml aTc): 7.2 fold
GFP-pdt#9 [GFP: P42212]
  Fold Degradation (0 vs 50 ng/ml aTc): 17 fold
[3]
  Fold Degradation (0 vs 50 ng/ml aTc): 51 fold
GFP-pdt#5G [GFP: P42212]
  Fold Degradation (0 vs 50 ng/ml aTc): 4.2 fold
GFP-pdt#1 [GFP: P42212]
  Fold Degradation (0 vs 50 ng/ml aTc): 24.6 fold
GFP-pdt#11 [GFP: P42212]
  Fold Degradation (0 vs 50 ng/ml aTc): 17.7 fold
GFP-pdt#7 [GFP: P42212]
  Fold Degradation (0 vs 50 ng/ml aTc): 31.7 fold
GFP-pdt#10 [GFP: P42212]
  Fold Degradation (0 vs 50 ng/ml aTc): 41.5 fold
[4]
  Fold Degradation (0 vs 50 ng/ml aTc): 48.7 fold
[5]
  Fold Degradation (0 vs 50 ng/ml aTc): 51.8 fold
[6]
  Fold Degradation (0 vs 50 ng/ml aTc): 5.4 fold
[7]
  Fold Degradation (0 vs 50 ng/ml aTc): 2.6 fold
GFP-pdt#5D [GFP: P42212]
  Fold Degradation (0 vs 50 ng/ml aTc): 12 fold
[8]
  Fold Degradation (0 vs 50 ng/ml aTc): 3.6 fold
GFP-pdt#S3 [GFP: P42212]
  Fold Degradation (0 vs 50 ng/ml aTc): 38.7 fold
GFP-pdt#5C [GFP: P42212]
  Fold Degradation (0 vs 50 ng/ml aTc): 1.6 fold
GFP-pdt#S2 [GFP: P42212]
  Fold Degradation (0 vs 50 ng/ml aTc): 44.9 fold
GFP-pdt#8 [GFP: P42212]
  Fold Degradation (0 vs 50 ng/ml aTc): 48.4 fold
[9]
  Fold Degradation (0 vs 50 ng/ml aTc): 61.8 fold
GFP-pdt#5F [GFP: P42212]
  Fold Degradation (0 vs 50 ng/ml aTc): 4 fold
GFP-pdt#13 [GFP: P42212]
  Fold Degradation (0 vs 50 ng/ml aTc): 18.6 fold
[10]
  Fold Degradation (0 vs 50 ng/ml aTc): 20.7 fold
  GFP level after mf-Lon expression (Example 2): reduced to 3% of its initial levels
GFP-pdt#12 [GFP: P42212]
  Fold Degradation (0 vs 50 ng/ml aTc): 31.6 fold

## mf-Lon fused to the E. coli ssrA tag variant ec-AAV
[4]
  GFP-pdt#3 (Example 2 name) degradation across ATc levels: resulting in reduced GFP-pdt#3 degradation throughout the range of ATc levels tested
